# Results published in patent US20100062005A1 (University of California, published 2010).
# Read-outs that look alike come from different tables or passages of the source.
# B1: 4A5 anti-ROR1 mAb (antibody, V domains shown)
# VH: EVKLVESGGGLVKPGGSLKLSCAASGFTFSSYAMSWVRQIPEKRLEWVASISRGGTTYYPDSVKGRFTISRDNVRNILYLQMSSLRSEDTAMYYCGRYDYDGYYAMDYWGQGTSVTVSS
# VL: DIKMTQSPSSMYASLGERVTITCKASPDINSYLSWFQQKPGKSPKTLIYRANRLVDGVPSRFSGGGSGQDYSLTINSLEYEDMGIYYCLQYDEFPYTFGGGTKLEMK
# Tests used:
# human ROR1 protein [1] = molecular target: T1, human ROR1 protein (human, UniProt Q01973 30-937); assay: flow cytometry, Alexa-647-4A5 against IgG2b isotype control, ZAP-70-negative CLL cases (N=36)
# T1 construct: Full-length ROR1 on CHO-ROR1 transfectants, CLL cells, tumour cell lines and tissues, or in their lysates (immunoprecipitation, immunoblot); also called CHO-ROR1 (CHO cells transfected to express human ROR1); ROR1 on CLL cells
# human ROR1 protein [2] = molecular target: T1, human ROR1 protein; assay: flow cytometry on CD5-negative, CD10+, CD19+ marrow B lymphocyte precursors (N=9 samples)
# human ROR1 protein [3] = molecular target: T1, human ROR1 protein
# human ROR1 protein [4] = molecular target: T1, human ROR1 protein; assay: flow cytometry, Alexa-647-4A5 against IgG2b isotype control, ZAP-70-positive CLL cases (N=33)
# T1 sequence (Q01973 30-937 limits assumed): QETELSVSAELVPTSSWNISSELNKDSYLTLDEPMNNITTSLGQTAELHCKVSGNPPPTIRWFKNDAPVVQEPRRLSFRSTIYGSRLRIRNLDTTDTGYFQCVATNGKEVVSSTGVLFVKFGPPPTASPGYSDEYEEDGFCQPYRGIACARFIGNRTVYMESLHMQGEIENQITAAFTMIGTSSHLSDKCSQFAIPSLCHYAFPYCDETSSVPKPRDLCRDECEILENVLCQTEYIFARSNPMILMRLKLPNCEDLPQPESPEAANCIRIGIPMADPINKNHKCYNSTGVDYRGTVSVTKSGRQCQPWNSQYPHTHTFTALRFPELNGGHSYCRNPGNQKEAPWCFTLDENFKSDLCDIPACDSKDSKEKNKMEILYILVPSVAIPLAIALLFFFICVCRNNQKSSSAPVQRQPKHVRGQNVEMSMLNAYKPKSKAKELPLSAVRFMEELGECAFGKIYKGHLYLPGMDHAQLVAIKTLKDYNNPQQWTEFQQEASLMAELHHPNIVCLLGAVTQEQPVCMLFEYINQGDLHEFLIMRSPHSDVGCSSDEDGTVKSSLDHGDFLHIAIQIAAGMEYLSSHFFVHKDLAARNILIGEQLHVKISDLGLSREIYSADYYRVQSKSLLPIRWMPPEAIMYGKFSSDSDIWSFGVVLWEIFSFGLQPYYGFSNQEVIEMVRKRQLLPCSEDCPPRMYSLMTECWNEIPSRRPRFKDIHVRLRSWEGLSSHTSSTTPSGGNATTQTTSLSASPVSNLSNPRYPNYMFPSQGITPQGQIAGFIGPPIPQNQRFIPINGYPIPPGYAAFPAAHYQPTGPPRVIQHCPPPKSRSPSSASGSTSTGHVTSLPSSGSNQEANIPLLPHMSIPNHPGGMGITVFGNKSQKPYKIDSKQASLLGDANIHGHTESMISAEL
binder,measurement,setting,value
B1,average MFIR,human ROR1 protein [1],12.4 ratio
same,median MFIR,human ROR1 protein [1],12 ratio
same,MFI ratio (MFIR),human ROR1 protein [2],6.3 ratio
same,MFI ratio (MFIR),human ROR1 protein [3],10 ratio
same,average MFIR,human ROR1 protein [4],12 ratio
same,median MFIR,human ROR1 protein [4],12.2 ratio
